Here are results for seven proteins from publication PMC8602277, “Crystal structures of the elusive Rhizobium etliL-asparaginase reveal a peculiar active site” (Nature Communications, 2021).

Changes are numbered by the printed parent chain. Numbers in names are those of the source.

Substrate in data set [1]: NC(=O)C[C@H](N)C(=O)O
Description: ITC, multiple injection mode, Michaelis-Menten fit. The settings on record: 30 mM phosphate pH 9.0, 37 °C, Zn-containing native enzyme, Hill coefficient 1.6 by separate Hill fit. The class given is biochemical, Rhizobium etli.

Data set [2] concerns the molecule itself. Description: SEC; analytical Superdex75 10/300 GL column, 50 mM phosphate buffer pH 7.5 with 20 mM NaCl, room temperature. For orientation: In gel filtration, larger molecules generally elute earlier.
Data set [3] deals with the molecule itself. Description: crystal structure; WT ReAV in four crystal forms (OP, MP1, MP2, MC) plus the S-SAD START data set; one or two dimers in the asymmetric unit; crystals grown at 19 °C by hanging drop vapor diffusion.

B1: ReAV (inducible R. etli L-asparaginase, AnsA) (Rhizobium etli CFN 42) (protein)
chain: MTPSEDFVVTDRGGIVENSHRVHAAVVDAKGRLLYALGNPTRMTLARSAAKPAQALAILETEGVAGYGFDDADIALMCASHSSEDRHIARTRAMLSKIKAEEADLRCGGHPSLSEMVNRSWIKQDFIPTAVCSNCSGKHVGMLAGARAIGAGTDGYHLPDHPMQGRVKRTVAELCDLDAGDVEWGTDGCNLPTPAFPLDRLGRIYAKLASAADGSDAGEGQSTRCAALAHIFRAMARHPEMVAGEGRYCTMLMRAFDGALVGKLGADASYAIGVRASDATRQLGTDGALGISVKIEDGNLEMLYAVVTELLERLGIGSPDVRSQLASFHHPQRVNTMGVTTGGVSFPFKLRGSKSNVDDPRLAAVAR
notes: full-length wild type, 367 residues, expressed in E. coli BL21 STAR (DE3) from pET151-D-TOPO, N-terminal His6-tag cut with TEV protease; homodimer, one Zn2+ per subunit
The term Km denotes the concentration of substrate that gives half-maximal velocity. What is called kcat is the maximal rate divided by the concentration of active sites. As to B1, in data set [1], the Michaelis constant (Km) was determined as 4.2 ± 0.3 mM and the turnover number (kcat) amounted to 438 ± 32 s⁻¹.

B2: ReAV S48A mutant (enzyme, Rhizobium etli (strain CFN 42))
chain: B1 chain with S48A
notes: inducible L-asparaginase ReAV (AnsA) of Rhizobium etli strain CFN 42; printed length 367 residues; CD spectra indicate incorrect folding or strong structural distortion; source: E. coli BL21 STAR (DE3), mostly in inclusion bodies, soluble part purified as the WT protein; not shown: His6, N-terminal, cleaved
The term stoichiometry N denotes a count of units in the complex or per binding partner. In the case of B2, the “stoichiometry N” value in data set [2] amounted to 2.

B3: ReAV K51A mutant (enzyme, Rhizobium etli (strain CFN 42))
chain: B1 chain with K51A
notes: inducible L-asparaginase ReAV (AnsA) of Rhizobium etli strain CFN 42; printed length 367 residues; source: E. coli BL21 STAR (DE3), purified as the WT protein; not shown: His6, N-terminal, cleaved
With B3, in data set [2], the “stoichiometry N” value was found to be 2.

B4: inducible Rhizobium etli L-asparaginase ReAV, wild type (enzyme, Rhizobium etli (strain CFN 42))
chain: B1 chain
modifications: Cys249 most likely oxidized, modeled as S-hydroxycysteine in the crystal structures
notes: inducible L-asparaginase ReAV (AnsA) of Rhizobium etli strain CFN 42, encoded on plasmid p42e; printed length 367 residues; also called WT ReAV; AnsA; source: E. coli BL21 STAR (DE3), purified (HisTrap Ni, TEV cleavage, second HisTrap Ni, Superdex 200); not shown: His6, N-terminal, cleaved
Take B4: in data set [3], the “stoichiometry N” value stood at 2.

B5: ReAV K263A mutant (enzyme, Rhizobium etli (strain CFN 42))
chain: B1 chain with K263A
notes: as for B3
For the protein B5, the “stoichiometry N” value in data set [2] was 2.

B6: ReAV S80A mutant (enzyme, Rhizobium etli (strain CFN 42))
chain: B1 chain with S80A
notes: as for B2
On to B6, for which the “stoichiometry N” value in data set [2] was 2.

B7: ReAV C135A mutant (enzyme, Rhizobium etli (strain CFN 42))
chain: B1 chain with C135A
notes: as for B3
Consider B7, for which, in data set [2], the “stoichiometry N” value amounted to 2.
